# Experimental data as given in article PMC3160658.
# T1: RAD52 Y104D (Homo sapiens, UniProt P43351 1-418, Y104D)
# T1 sequence: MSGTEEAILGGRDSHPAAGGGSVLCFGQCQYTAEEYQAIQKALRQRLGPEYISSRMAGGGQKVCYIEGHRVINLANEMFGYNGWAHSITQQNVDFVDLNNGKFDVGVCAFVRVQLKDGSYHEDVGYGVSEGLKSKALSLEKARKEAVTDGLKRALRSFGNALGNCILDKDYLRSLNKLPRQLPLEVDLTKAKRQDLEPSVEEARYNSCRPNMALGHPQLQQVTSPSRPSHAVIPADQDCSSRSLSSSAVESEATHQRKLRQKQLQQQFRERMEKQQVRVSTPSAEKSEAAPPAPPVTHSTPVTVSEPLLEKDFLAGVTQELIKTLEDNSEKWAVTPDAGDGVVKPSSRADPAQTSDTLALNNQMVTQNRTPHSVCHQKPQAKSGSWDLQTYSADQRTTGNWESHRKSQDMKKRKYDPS
# What was measured:
# RAD52;RPA = RAD52;RPA (Homo sapiens;human?, UniProt P43351;P27694;P15927;P35244 1-418;1-616;1-270;1-121, |); assay: FRET titration
# RAD52 Y104D = target: T1, RAD52 Y104D; assay: EMSA
# Sequence of RAD52;RPA (P27694 whole entry, chain 2 of 3): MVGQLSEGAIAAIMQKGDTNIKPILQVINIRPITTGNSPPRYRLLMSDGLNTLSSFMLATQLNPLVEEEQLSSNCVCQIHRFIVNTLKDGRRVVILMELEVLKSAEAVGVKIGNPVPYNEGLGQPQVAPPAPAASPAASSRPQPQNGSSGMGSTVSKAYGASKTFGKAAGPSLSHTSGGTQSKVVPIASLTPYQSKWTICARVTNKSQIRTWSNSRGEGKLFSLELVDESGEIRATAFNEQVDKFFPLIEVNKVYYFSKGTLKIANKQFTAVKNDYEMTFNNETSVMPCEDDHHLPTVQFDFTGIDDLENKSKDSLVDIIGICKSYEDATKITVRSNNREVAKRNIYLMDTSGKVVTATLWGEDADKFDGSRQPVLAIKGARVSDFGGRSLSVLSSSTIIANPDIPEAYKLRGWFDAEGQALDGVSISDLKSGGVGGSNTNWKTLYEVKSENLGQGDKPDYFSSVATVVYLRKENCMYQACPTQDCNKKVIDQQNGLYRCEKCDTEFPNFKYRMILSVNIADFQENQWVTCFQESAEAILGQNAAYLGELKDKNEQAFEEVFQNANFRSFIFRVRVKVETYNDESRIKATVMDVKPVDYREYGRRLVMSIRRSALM
# Sequence of RAD52;RPA (P15927 whole entry, chain 3 of 3): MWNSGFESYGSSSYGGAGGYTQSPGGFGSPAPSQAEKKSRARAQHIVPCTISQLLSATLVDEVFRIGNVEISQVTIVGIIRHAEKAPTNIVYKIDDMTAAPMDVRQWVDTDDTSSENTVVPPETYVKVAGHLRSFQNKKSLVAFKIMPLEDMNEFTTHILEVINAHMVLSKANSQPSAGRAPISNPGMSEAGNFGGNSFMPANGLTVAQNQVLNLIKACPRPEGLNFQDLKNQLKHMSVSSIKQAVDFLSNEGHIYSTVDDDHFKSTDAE
# Sequence of RAD52;RPA (P35244 whole entry, chain 4 of 3): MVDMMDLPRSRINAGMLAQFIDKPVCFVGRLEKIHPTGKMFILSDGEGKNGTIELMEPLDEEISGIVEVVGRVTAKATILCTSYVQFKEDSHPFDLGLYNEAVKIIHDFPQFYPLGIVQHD
binder,measurement,setting,value
TTTTTTTTTTTTTTTTTTTTTTTTTTTTTT (ssDNA) [Cy5-(dT)30-Cy3],binding result,RAD52;RPA,binds
same,binding result,RAD52 Y104D,binds
